This is an account of results in the supplement of paper PMC12764529.

± gives the half width of the 95% confidence interval.

Data set [1] in a line: folding stability dG unfold from trypsin proteolysis; higher = more stable. In a few lines:
(§1)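 How resistant each design was to proteolysis was captured as K50, inferred by Bayesian fitting of sequencing counts. Unfolding free energy was then derived relative to a sequence-predicted unfolded-state K50 and a shared folded-state K50, per protease or combined. Digestion used trypsin and chymotrypsin at 11 threefold-diluted concentrations plus a no-protease condition, on mini-proteins under 80 residues without cysteine in a PA-tagged cDNA display construct. Designs were kept only when AlphaFold2 dimer inter-PAE was above 15.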

Data set [2] can be described thus: folding stability dG unfold from chymotrypsin proteolysis; higher = more stable. The method, boiled down:
as §1

Data set [3] in a line: folding stability dG unfold (combined trypsin and chymotrypsin); higher = more stable. The method, boiled down: as §1

As for “SAGPPIWIRAEIEHPRPNPDDGEPQERKREVWIRLPEDLLENGMPVEELAKELASNYPGYKVKIDEILSAGG [r19_110_TrROS]”, the “folding stability dG unfold” value in data set [1] was 0.552 ± 0.026 kcal/mol; in data set [2], -0.915 ± 0.38 kcal/mol; in data set [3], 0.159 ± 0.15 kcal/mol.

Consider “SAGPTVRIHLPGFEPIRFPPGDELALPFPNGYYLIIRRKPDGEVEVFPMGGEERKLPDADEVEIYMFPASAG [r5_869_TrROS]”, for which the “folding stability dG unfold” value was 0.665 ± 0.11 kcal/mol in data set [1], 1.32 ± 0.15 kcal/mol in data set [2] and 1.07 ± 0.13 kcal/mol in data set [3].

Turning to “SAGPTVTVELEIRLPPELRGLSPEELAELLARELEEAGYTVEVVEVEEEDGYVTVRVRVTVPLPPPPPESAG [r5_80_TrROS_Hall]”, the “folding stability dG unfold” value in data set [1] amounted to 3.59 ± 0.11 kcal/mol; in data set [2], 3.29 ± 0.13 kcal/mol; in data set [3], 3.52 ± 0.13 kcal/mol.

On to “SAGPVIATADVEVYEDGTAKITLTLRTLTENGELLPDVTLPITLPLPPGSKATITVNLDDGEITITVGDSAG [r5_179_TrMRF]”, for which the “folding stability dG unfold” value in data set [1] came to 4.07 ± 0.12 kcal/mol; in data set [2], 3.79 ± 0.16 kcal/mol; in data set [3], 3.96 ± 0.11 kcal/mol.

“SAGPVLLELESPSGGRYRIALPPNVTEIRRVGDRFIIRLPDGFSLVIEVDEDEPPSTLNDIKILAVIPSAGG [r19_274_TrMRF]”: the “folding stability dG unfold” value in data set [1] was 2.19 ± 0.03 kcal/mol; in data set [2], 2.41 ± 0.045 kcal/mol; in data set [3], 2.38 ± 0.043 kcal/mol.

Regarding “SAGPVVEVKPLETQALPDGSVRVVAEVTIKDPNSEKTTVVTVEATARVAPDGRPVSIEEIVEKAIKELKSAG [r5_604_JUSTAS]”, the “folding stability dG unfold” value in data set [1] stood at 0.801 ± 0.043 kcal/mol; in data set [2] it was 1.26 ± 0.046 kcal/mol; in data set [3], 1.06 ± 0.057 kcal/mol.

In the case of “SAGPYYIITVTIPLPNLSPDLQEDFPGQKVTFMFIVDPGMDMEQKRQIKEELRDFGIKDVDIMPADDIKSAG [r5_60_TrROS]”, the “folding stability dG unfold” value was determined as 1.27 ± 0.026 kcal/mol in data set [1], 2.58 ± 0.03 kcal/mol in data set [2] and 2.2 ± 0.1 kcal/mol in data set [3].

For the sequence “SAGQIVTTDPATGVTTVTIPFPDGSYATITITVEKLTPDKESIVSVDVDFKDKGKKVVPAAVLVEEILSSAG [r5_842_JUSTAS]”, the “folding stability dG unfold” value in data set [1] came to 0.25 ± 0.084 kcal/mol; in data set [2], 1.07 ± 0.11 kcal/mol; in data set [3] it was 0.851 ± 0.17 kcal/mol.

For the sequence “SAGQLPPGETYTAEIEIRKNEPITLEEIAKKLPGYEFDSVKVEPMPDGWTRITITMTPGDVDKIQDAIRSAG [r5_554_TrROS]”, the “folding stability dG unfold” value turned out to be 0.92 ± 0.044 kcal/mol in data set [1], 1.87 ± 0.031 kcal/mol in data set [2] and 1.65 ± 0.092 kcal/mol in data set [3].

In the case of “SAGRFIRIRFKDPGMSMDNLVKEIKEELGIPPDHKVTIDWEPDPNGGYEITIQVDDPQVRDKILEALRSAGG [r19_215_TrROS]”, the “folding stability dG unfold” value in data set [1] was found to be 3.46 ± 0.1 kcal/mol; in data set [2], 2.5 ± 0.081 kcal/mol; in data set [3], 2.97 ± 0.15 kcal/mol.

For “SAGRIHFMDSPSQARDQAEENNYPIVIGMDKGSGWMQIAIYKGGKPKPIRQIPPNNPEINRFIKKLGFTSAG [r5_458_TrROS]”, the “folding stability dG unfold” value in data set [1] is 0.149 ± 0.093 kcal/mol; in data set [2], -0.14 ± 0.16 kcal/mol; in data set [3] it was 0.0603 ± 0.14 kcal/mol.

For the sequence “SAGRIRKAIREAFGMDITSIDIDVKENPNGSKKVEIDIHMNNPSQRRRMADAIIEELGYPIKEIEITPMSAG [r5_542_TrROS]”, the “folding stability dG unfold” value in data set [1] worked out at 0.748 ± 0.24 kcal/mol; in data set [2], 0.558 ± 0.2 kcal/mol; in data set [3], 0.629 ± 0.17 kcal/mol.

In the case of “SAGRITIDPEDWRIEVKPPNGKKREISPDKIQELLREQKQKGKPPTAEEIAEKIMDEFPGYEVEIHPRSAGG [r19_46_TrROS]”, the “folding stability dG unfold” value came out at 0.894 ± 0.1 kcal/mol in data set [1], 1.22 ± 0.073 kcal/mol in data set [2] and 1.06 ± 0.3 kcal/mol in data set [3].

“SAGRVRLEIVIMIPIDPEQLENLPPSIRDPNGMEIYENGDMIMIKMPIPIPPPPVPDPDGKKMTPEELSAGG [r19_148_TrROS]”: the “folding stability dG unfold” value in data set [1] stood at 1.44 ± 0.052 kcal/mol; in data set [2], 0.493 ± 0.11 kcal/mol; in data set [3], 0.982 ± 0.24 kcal/mol.

For the sequence “SAGSAYRIEVYNPETGKKVEIFVFPNGEALVKEEDGFSKIYIDPSKPEQVEAIAKEIEPLGVEVKISPWSAG [r5_791_TrMRF]”, the figures for the “folding stability dG unfold” value in data set [1], in data set [2] and in data set [3] were 1.4 ± 0.1 kcal/mol, 1.29 ± 0.29 kcal/mol and 1.35 ± 0.34 kcal/mol, respectively.

Regarding “SAGSFKVTLELVLPNGEKLTVENPEDVLAAIKALPSNVTVRVSTPGESETISITGSDGSVFALKIERFKSAG [r5_506_TrMRF]”, the “folding stability dG unfold” value in data set [1] was found to be 1.68 ± 0.045 kcal/mol; in data set [2], 1.97 ± 0.089 kcal/mol; in data set [3], 1.85 ± 0.1 kcal/mol.

As to “SAGSIPLDIAKSLGGKTEVSSSPVPLGGGMTATLTTVTATLPDKIVTITITTLADPTVTEVTITTEPIKSAG [r5_323_JUSTAS]”, the “folding stability dG unfold” value turned out to be 1.04 ± 0.068 kcal/mol in data set [1], 1.23 ± 0.039 kcal/mol in data set [2] and 1.14 ± 0.13 kcal/mol in data set [3].

In the case of “SAGSITIDGLTPDKEQEVKITVTLPLPGGGTVTLELTAKVTYDPATGLAKMPITLPDGTVLPLTLPLPESAG [r5_743_JUSTAS]”, the “folding stability dG unfold” value stood at 2.21 ± 0.12 kcal/mol in data set [1], 1.93 ± 0.074 kcal/mol in data set [2] and 2.1 ± 0.093 kcal/mol in data set [3].
